# Source: US20250277037A1 (UNIVERSITY OF UTAH RESEARCH FOUNDATION, published 2025)
# T1: mouse FcγRIV on RAW 264.7 macrophage cells (mouse, UniProt A0A0B4J1G0 21-249)
# T1 construct: also called RAW 264.7 cells
# T1 sequence: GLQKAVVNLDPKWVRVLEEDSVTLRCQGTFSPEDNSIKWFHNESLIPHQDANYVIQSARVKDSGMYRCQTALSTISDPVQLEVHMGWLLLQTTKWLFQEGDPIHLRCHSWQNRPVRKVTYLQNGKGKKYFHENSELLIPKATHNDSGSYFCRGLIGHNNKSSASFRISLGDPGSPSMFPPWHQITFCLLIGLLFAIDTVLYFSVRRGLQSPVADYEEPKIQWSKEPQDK
# B1: D-αPD-1 (depleting anti-mouse PD-1 antibody; RMP1-14 variable domains on mouse IgG2a heavy and mouse κ light constant domains) (antibody)
# heavy: EVQLQESGPGLVKPSQSLSLTCSVTGYSITSSYRWNWIRKFPGNRLEWMGYINSAGISNYNPSLKRRISITRDTSKNQFFLQVNSVTTEDAATYYCARSDNMGTTPFTYWGQGTLVTVSSAKTTAPSVYPLAPVCGDTTGSSVTLGCLVKGYFPEPVTLTWNSGSLSSGVHTFPAVLQSDLYTLSSSVTVTSSTWPSQSITCNVAHPASSTKVDKKIEPRGPTIKPCPPCKCPAPNLLGGPSVFIFPPKIKDVLMISLSPIVTCVVVDVSEDDPDVQISWFVNNVEVHTAQTQTHREDYNSTLRVVSALPIQHQDWMSGKEFKCKVNNKDLPAPIERTISKPKGSVRAPQVYVLPPPEEEMTKKQVTLTCMVTDFMPEDIYVEWTNNGKTELNYKNTEPVLDSDGSYFMYSKLRVEKKNWVERNSYSCSVVHEGLHNHHTTKSFSRTPGK
# light: DIVMTQGTLPNPVPSGESVSITCRSSKSLLYSDGKTYLNWYLQRPGQSPQLLIYWMSTRASGVSDRFSGSGSGTDFTLKISGVEAEDVGIYYCQQGLEFPTFGGGTKLELKRADAAPTVSIFPPSSEQLTSGGASVVCFLNNFYPKDINVKWKIDGSERQNGVLNSWTDQDSKDSTYSMSSTLTLTKDEYERHNSYTCEATHKTSTSPIVKSFNRNEC
# notes: also called anti-αPD-1 antibody; anti-PD-1 antibody 1
# Experiments:
# [1] = target: mouse FcγRIV on RAW 264.7 macrophage cells (mouse); test: competition by flow cytometry on RAW 264.7 cells: preincubation with the antibody at 4 °C for 30 min, then staining with PE anti-mouse FcγRIV (clone 9E9); inhibition relative to cells without antibody
# [2] = target: mouse FcγRIV on RAW 264.7 macrophage cells (mouse); test: competition, flow cytometry on RAW 264.7 cells; 25 and 250 µg/mL, not concentration-dependent; competitor PE anti-mouse FcγRIV (9E9)
# [3] = target: mouse FcγRIV on RAW 264.7 macrophage cells (mouse); test: flow cytometry, Alexa-647-labelled antibody at 4 µg/mL on RAW 264.7 cells, 4 °C 30 min (medium control 188.3)
# [4] = target: mouse PD-1 (programmed death-1, CD279) on EL4 cells (mouse) (UniProt Q02242); test: flow cytometry on PD-1+ EL4 cells, incubation on ice (4 °C) for 30 min, detection with PE anti-mouse IgG2a; medium control without antibody given as 70.0
# mouse PD-1 (programmed death-1, CD279) on EL4 cells (mouse), sequence (Q02242 25-288): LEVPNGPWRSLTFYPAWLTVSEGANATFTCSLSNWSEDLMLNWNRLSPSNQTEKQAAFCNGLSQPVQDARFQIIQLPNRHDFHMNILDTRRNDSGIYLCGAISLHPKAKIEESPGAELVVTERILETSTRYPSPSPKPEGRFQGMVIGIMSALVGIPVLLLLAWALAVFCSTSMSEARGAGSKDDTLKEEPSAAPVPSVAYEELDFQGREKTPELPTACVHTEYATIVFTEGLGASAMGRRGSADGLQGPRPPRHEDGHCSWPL
# [5] = target: T1, mouse FcγRIV on RAW 264.7 macrophage …; test: flow cytometry, Alexa-647-labelled antibody at 4 µg/mL on RAW 264.7 cells, 4 °C 30 min; reference: cells in the medium control
# Method: ADCP was the next mechanism that was investigated. Before evaluating D-αPD-1-mediated ADCP by macrophages, the binding between D-αPD-1 and macrophages was investigated since the binding is the prerequisite of ADCP. Here, RAW 264.7 cells were incubated with Alexa-647-labeled D-αPD-1, isotype control, or the medium control. Then, the bound antibodies were analyzed by flow cytometry (FIG. 5A).
Molecule,Inhibition (%) at 25 µg/mL [1],Inhibition (%) at 250 µg/mL [1],percent inhibition of anti-mouse FcγRIV antibody binding [2],other results
"B-αPD-1 (anti-mouse PD-1 blocking antibody, clone RMP1-14, a rat IgG)",10.5%,6.7%,10%,
goat IgG control (antibody),4%,4.3%,10%,
mouse IgG2a isotype control (antibody),,,,MFI [3]: 213 MFI; MFI at 0.1 µg/mL [4]: 95.4; MFI at 1 µg/mL [4]: 125; MFI at 10 µg/mL [4]: 433
B1,,,,fold MFI over medium control [5]: ~3 fold
